In the supplement of paper PMC9876800:

Test system: peptide library, one residue held at a place counted from the S/T acceptor
Assay: relative phosphorylation of the sub-library (ratio to the mean residue at this position); higher = residue favoured
Settings: human
How it was run: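 Purified recombinant kinases, either human or orthologue constructs, were incubated in 384-well plates with biotinylated degenerate peptide sub-libraries. Each sub-library fixed one residue at one position around a central Ser/Thr. Peptides at 50 μM and 50 μM ATP spiked with γ-32P-ATP were used for 90 min under kinase-specific conditions, and spots on streptavidin membranes were phosphorimaged and quantified by densitometry. Relative sub-library phosphorylation is expressed as a ratio to the mean residue at that position.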

DSTYK, construct: Full length, sequence (Q6XUX3 whole entry, looked up): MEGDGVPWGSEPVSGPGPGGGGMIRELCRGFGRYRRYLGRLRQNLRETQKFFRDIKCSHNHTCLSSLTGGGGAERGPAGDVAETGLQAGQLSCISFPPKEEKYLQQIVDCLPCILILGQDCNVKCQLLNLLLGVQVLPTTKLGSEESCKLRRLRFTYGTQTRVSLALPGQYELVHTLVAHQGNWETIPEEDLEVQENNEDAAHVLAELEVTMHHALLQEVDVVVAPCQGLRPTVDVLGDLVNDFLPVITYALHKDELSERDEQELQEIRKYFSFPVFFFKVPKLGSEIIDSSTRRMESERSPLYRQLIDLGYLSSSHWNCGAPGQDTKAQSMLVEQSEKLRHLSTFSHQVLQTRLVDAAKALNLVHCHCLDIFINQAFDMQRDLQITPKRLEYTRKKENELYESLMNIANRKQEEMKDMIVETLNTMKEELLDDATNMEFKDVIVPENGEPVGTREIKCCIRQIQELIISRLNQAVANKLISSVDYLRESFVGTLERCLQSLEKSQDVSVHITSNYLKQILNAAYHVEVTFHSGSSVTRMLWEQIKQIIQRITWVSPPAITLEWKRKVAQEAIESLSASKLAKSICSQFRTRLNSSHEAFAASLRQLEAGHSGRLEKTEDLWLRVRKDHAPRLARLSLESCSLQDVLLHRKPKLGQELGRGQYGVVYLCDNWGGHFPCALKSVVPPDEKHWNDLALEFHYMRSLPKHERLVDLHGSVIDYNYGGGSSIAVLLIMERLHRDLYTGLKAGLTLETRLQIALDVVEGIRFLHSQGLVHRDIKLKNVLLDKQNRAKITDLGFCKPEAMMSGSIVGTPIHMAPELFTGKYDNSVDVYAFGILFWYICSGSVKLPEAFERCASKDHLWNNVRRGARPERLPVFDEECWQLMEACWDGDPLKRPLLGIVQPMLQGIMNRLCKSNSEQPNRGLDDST
PRKAA2, construct: Full length, sequence (P54646 whole entry, looked up): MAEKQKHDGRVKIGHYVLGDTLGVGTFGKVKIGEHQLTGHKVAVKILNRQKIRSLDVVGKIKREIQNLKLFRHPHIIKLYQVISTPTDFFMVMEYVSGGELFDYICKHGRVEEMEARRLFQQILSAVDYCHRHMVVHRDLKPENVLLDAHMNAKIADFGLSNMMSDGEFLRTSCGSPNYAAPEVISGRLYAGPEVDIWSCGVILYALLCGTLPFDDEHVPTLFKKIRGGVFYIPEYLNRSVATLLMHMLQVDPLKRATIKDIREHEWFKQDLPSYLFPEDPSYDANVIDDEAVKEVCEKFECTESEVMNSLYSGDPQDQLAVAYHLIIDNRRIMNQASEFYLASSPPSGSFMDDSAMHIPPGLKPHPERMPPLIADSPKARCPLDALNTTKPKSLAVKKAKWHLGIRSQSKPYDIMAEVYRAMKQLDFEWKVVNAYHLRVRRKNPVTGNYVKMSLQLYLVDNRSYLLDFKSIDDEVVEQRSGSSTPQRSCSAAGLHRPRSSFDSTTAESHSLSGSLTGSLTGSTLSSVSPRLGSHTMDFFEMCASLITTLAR
WNK3, construct: aa1-434, sequence (Q9BYP7 1-434, looked up): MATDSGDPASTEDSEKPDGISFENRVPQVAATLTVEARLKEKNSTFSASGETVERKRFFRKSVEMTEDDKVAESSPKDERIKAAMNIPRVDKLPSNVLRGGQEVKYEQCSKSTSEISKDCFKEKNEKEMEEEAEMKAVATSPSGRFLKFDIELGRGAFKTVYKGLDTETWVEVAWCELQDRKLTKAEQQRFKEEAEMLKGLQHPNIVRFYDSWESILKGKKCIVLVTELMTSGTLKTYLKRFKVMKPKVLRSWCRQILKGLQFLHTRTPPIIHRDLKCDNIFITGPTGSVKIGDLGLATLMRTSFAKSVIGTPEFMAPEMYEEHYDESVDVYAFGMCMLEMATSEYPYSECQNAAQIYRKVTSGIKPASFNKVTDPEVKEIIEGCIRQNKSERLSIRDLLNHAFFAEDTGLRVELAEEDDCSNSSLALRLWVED

DSTYK, construct: Full length (from UniProt Q6XUX3)
relative phosphorylation
Settings | at +1 | at +2 | at +3 | at +4 | at -1 | at -2 | at -3 | at -4 | at -5
A fixed | 0.815 | 1.14 | 0.976 | 1.07 | 1.15 | 0.947 | 0.937 | 1.05 | 1.27
D fixed | 0.5 | 0.992 | 0.68 | 0.984 | 1.7 | 2.48 | 1.41 | 1.8 | 1.74
E fixed | 0.639 | 1.52 | 0.934 | 1.05 | 2 | 2.13 | 0.887 | 1.52 | 1.43
F fixed | 1.11 | 0.465 | 1.04 | 0.754 | 0.584 | 0.828 | 2.04 | 1.12 | 0.944
G fixed | 1.19 | 0.729 | 0.872 | 1.12 | 0.813 | 1.11 | 0.697 | 1.34 | 1.31
H fixed | 0.834 | 1.08 | 1.25 | 0.955 | 0.924 | 1.15 | 1.02 | 0.96 | 1.12
I fixed | 1.52 | 0.48 | 0.915 | 0.663 | 0.577 | 0.701 | 1.07 | 0.721 | 0.619
K fixed | 0.434 | 1.85 | 1.09 | 1.29 | 0.93 | 0.366 | 0.453 | 0.718 | 1.05
L fixed | 1.54 | 0.461 | 1.1 | 0.754 | 0.97 | 1.25 | 1.7 | 0.862 | 0.732
M fixed | 1.55 | 0.667 | 0.977 | 0.837 | 0.911 | 1.1 | 1.36 | 0.744 | 0.698
N fixed | 0.878 | 1.3 | 0.83 | 1.11 | 1.48 | 1.03 | 0.676 | 0.908 | 0.935
P fixed | 0.218 | 0.587 | 0.738 | 1.45 | 0.324 | 0.228 | 0.513 | 0.777 | 0.916
Q fixed | 1.21 | 1.29 | 1.02 | 1.15 | 1.31 | 1.04 | 0.692 | 0.793 | 0.773
R fixed | 0.499 | 2.58 | 1.3 | 1.23 | 1.2 | 0.467 | 0.471 | 0.639 | 0.835
V fixed | 1.65 | 0.685 | 1.08 | 0.734 | 0.667 | 0.765 | 0.6 | 0.598 | 0.733
W fixed | 0.993 | 0.595 | 1.09 | 1.04 | 0.682 | 0.717 | 1.29 | 1.63 | 1.17
Y fixed | 1.41 | 0.569 | 1.11 | 0.797 | 0.774 | 0.69 | 1.19 | 0.819 | 0.722
pThr fixed | 1.23 | 1.43 | 0.787 | 1.09 | 0.845 | 1.66 | 0.996 | 1.03 | 1.04
pTyr fixed | 2.22 | 0.801 | 0.882 | 0.912 | 1.84 | 1.21 | 1.13 | 0.961 | 1.09

WNK3, construct: aa1-434 (from UniProt Q9BYP7)
relative phosphorylation
Settings | at +1 | at +2 | at +3 | at +4 | at -1 | at -2 | at -3 | at -4 | at -5
A fixed | 0.622 | 0.792 | 0.655 | 0.69 | 0.647 | 1.05 | 0.84 | 0.962 | 0.856
D fixed | 0.416 | 0.7 | 0.675 | 0.609 | 0.462 | 0.409 | 0.519 | 0.598 | 0.749
E fixed | 0.359 | 0.496 | 0.64 | 0.647 | 0.6 | 0.361 | 0.552 | 0.766 | 0.91
F fixed | 1.36 | 1.09 | 1.43 | 1.25 | 0.983 | 0.865 | 0.748 | 0.843 | 1.14
G fixed | 0.784 | 0.939 | 0.674 | 0.771 | 0.605 | 1.41 | 0.728 | 0.853 | 0.972
H fixed | 1.02 | 0.981 | 1.31 | 1.01 | 1.11 | 1.56 | 1.44 | 1.3 | 1.24
I fixed | 1.19 | 1.59 | 1.09 | 1.38 | 0.924 | 0.746 | 0.95 | 0.836 | 0.879
K fixed | 0.825 | 0.772 | 1 | 1 | 1.51 | 1.19 | 1.7 | 1.37 | 1.39
L fixed | 1.61 | 1.5 | 1.32 | 1.29 | 1.26 | 0.8 | 0.862 | 0.858 | 0.753
M fixed | 1.84 | 1.54 | 1.29 | 1.41 | 1.49 | 0.852 | 1.16 | 0.894 | 0.861
N fixed | 0.937 | 0.654 | 0.747 | 0.682 | 0.799 | 0.815 | 0.795 | 0.973 | 0.968
P fixed | 0.278 | 0.356 | 0.441 | 0.626 | 0.428 | 1.24 | 0.794 | 0.8 | 0.702
Q fixed | 1.16 | 0.608 | 0.648 | 0.677 | 1.22 | 0.768 | 1.11 | 0.901 | 0.986
R fixed | 1.16 | 1.64 | 0.994 | 0.959 | 1.53 | 1.85 | 1.87 | 1.77 | 1.69
V fixed | 1.03 | 1.28 | 0.994 | 1.35 | 1.09 | 1.07 | 0.871 | 0.957 | 0.818
W fixed | 1.06 | 0.946 | 1.59 | 1.4 | 1.15 | 1.01 | 1.01 | 1.14 | 0.974
Y fixed | 1.33 | 1.12 | 1.51 | 1.24 | 1.2 | 0.997 | 1.06 | 1.19 | 1.12
pThr fixed | 0.485 | 0.521 | 0.513 | 0.543 | 0.566 | 0.779 | 0.812 | 0.96 | 0.798
pTyr fixed | 0.566 | 0.549 | 0.663 | 0.56 | 0.893 | 0.555 | 0.741 | 0.842 | 0.859

PRKAA2, construct: Full length (from UniProt P54646)
relative phosphorylation
Settings | at +1 | at +2 | at +3 | at +4 | at -1 | at -2 | at -3 | at -4 | at -5
A fixed | 1.05 | 1.53 | 0.803 | 0.597 | 1.14 | 1.34 | 0.699 | 1.19 | 0.889
D fixed | 0.54 | 0.575 | 1.53 | 0.614 | 0.593 | 0.42 | 0.258 | 0.419 | 0.336
E fixed | 0.708 | 0.492 | 0.805 | 0.454 | 0.495 | 0.427 | 0.368 | 0.546 | 0.308
F fixed | 1.88 | 0.855 | 1.01 | 1.27 | 0.734 | 0.655 | 0.4 | 0.67 | 1.3
G fixed | 0.711 | 0.724 | 0.933 | 0.637 | 1.38 | 0.933 | 0.739 | 1.13 | 0.815
H fixed | 1.15 | 1.48 | 2.39 | 0.747 | 1.12 | 1.18 | 1.26 | 1.26 | 0.8
I fixed | 0.565 | 1.19 | 0.531 | 2.12 | 0.339 | 0.925 | 0.335 | 0.577 | 1.42
K fixed | 1.01 | 0.689 | 1.01 | 0.777 | 1.9 | 1.62 | 2.75 | 2.22 | 1.27
L fixed | 0.814 | 1.29 | 0.677 | 2.7 | 0.714 | 0.548 | 0.398 | 0.692 | 1.64
M fixed | 1.33 | 0.833 | 0.693 | 2.04 | 0.978 | 0.575 | 0.473 | 0.928 | 1.51
N fixed | 0.942 | 1.18 | 1.69 | 0.864 | 1.16 | 1.93 | 0.821 | 0.801 | 0.684
P fixed | 0.269 | 1.37 | 0.41 | 0.789 | 1.51 | 0.826 | 0.991 | 1.31 | 0.964
Q fixed | 1.41 | 1.03 | 0.978 | 0.806 | 1.22 | 0.981 | 0.851 | 0.874 | 0.825
R fixed | 1.23 | 0.652 | 1.06 | 0.618 | 1.58 | 1.84 | 5.14 | 2.31 | 1.89
V fixed | 0.779 | 1.34 | 0.506 | 0.876 | 0.49 | 1.47 | 0.365 | 0.7 | 0.769
W fixed | 1.35 | 0.966 | 1.16 | 0.617 | 0.73 | 0.661 | 0.559 | 0.666 | 0.723
Y fixed | 1.27 | 0.806 | 0.808 | 0.479 | 0.903 | 0.676 | 0.596 | 0.713 | 0.854
pThr fixed | 0.69 | 0.503 | 0.35 | 0.709 | 0.324 | 0.504 | 0.49 | 0.644 | 0.588
pTyr fixed | 0.649 | 0.452 | 0.57 | 0.529 | 0.607 | 0.533 | 0.471 | 0.475 | 0.696

PRKCA, construct: Full length (from UniProt P17252)
relative phosphorylation
Settings | at +1 | at +2 | at +3 | at +4 | at -1 | at -2 | at -3 | at -4 | at -5
A fixed | 0.485 | 0.407 | 0.553 | 0.819 | 0.905 | 0.911 | 0.726 | 1.03 | 1.09
D fixed | 0.185 | 0.216 | 0.528 | 0.597 | 0.541 | 0.467 | 0.389 | 0.578 | 0.646
E fixed | 0.21 | 0.16 | 0.526 | 0.514 | 0.472 | 0.407 | 0.439 | 0.724 | 0.643
F fixed | 1.74 | 0.477 | 1.01 | 0.553 | 0.637 | 0.727 | 0.963 | 0.892 | 1.14
G fixed | 0.648 | 0.42 | 1.16 | 1.46 | 2.07 | 1.34 | 1.23 | 1.47 | 1.53
H fixed | 0.597 | 1.23 | 1.12 | 1.09 | 0.948 | 0.985 | 1.05 | 1.04 | 0.997
I fixed | 1.64 | 0.499 | 0.602 | 0.58 | 0.389 | 0.413 | 0.501 | 0.59 | 0.646
K fixed | 1.69 | 3.79 | 1.99 | 2.3 | 1.88 | 1.79 | 1.6 | 1.39 | 1.43
L fixed | 1.42 | 0.395 | 0.843 | 0.499 | 0.638 | 0.469 | 0.493 | 0.549 | 0.688
M fixed | 1.33 | 0.571 | 0.741 | 0.564 | 0.826 | 0.678 | 0.796 | 0.649 | 0.626
N fixed | 0.561 | 0.86 | 0.918 | 1.04 | 1.39 | 1.08 | 1.2 | 0.915 | 0.877
P fixed | 0.364 | 0.401 | 0.697 | 1.55 | 1.26 | 1.13 | 1.43 | 1.45 | 1.22
Q fixed | 1.41 | 0.684 | 1.03 | 0.926 | 1.04 | 1.15 | 0.886 | 1.12 | 0.716
R fixed | 1.87 | 4.65 | 2.46 | 2.26 | 2.01 | 3.23 | 3.44 | 1.59 | 1.84
V fixed | 1.26 | 0.464 | 0.662 | 0.703 | 0.661 | 0.522 | 0.447 | 0.92 | 0.638
W fixed | 0.729 | 0.586 | 0.972 | 0.797 | 0.475 | 1 | 0.589 | 1.28 | 1.38
Y fixed | 0.867 | 1.19 | 1.19 | 0.747 | 0.862 | 0.686 | 0.811 | 0.805 | 0.884
pThr fixed | 0.729 | 0.345 | 0.663 | 0.482 | 0.348 | 0.603 | 0.636 | 0.807 | 0.655
pTyr fixed | 0.38 | 0.31 | 0.58 | 0.427 | 0.983 | 0.679 | 0.98 | 0.802 | 1.11
